Experimental data: US20100146651, “MEGANUCLEASE VARIANTS CLEAVING A DNA TARGET SEQUENCE FROM THE HPRT GENE AND USES THEREOF” (CELLECTIS, published 2010)

Columns and labels:
Test in all cases: cell_activity; CHO chromosomal reporter, maximum
[1] = target: T1, HprCH3.3 G19S/HprCH3.4 heterodimer (synthetic, UniProt P05725;P05725 SEQ:1-163,SEQ:1-163, G19S in first chain)
T1 sequence 1: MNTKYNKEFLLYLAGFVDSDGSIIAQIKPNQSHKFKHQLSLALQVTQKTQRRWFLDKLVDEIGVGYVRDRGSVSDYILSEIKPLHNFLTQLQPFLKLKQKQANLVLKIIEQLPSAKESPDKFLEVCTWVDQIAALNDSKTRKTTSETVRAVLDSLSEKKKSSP
T1 sequence 2: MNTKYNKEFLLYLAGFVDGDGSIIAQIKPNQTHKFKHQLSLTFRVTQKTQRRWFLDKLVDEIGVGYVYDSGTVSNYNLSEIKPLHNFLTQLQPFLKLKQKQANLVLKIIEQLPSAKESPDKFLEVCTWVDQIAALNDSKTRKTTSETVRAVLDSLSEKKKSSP
Text: (§1) To evaluate the cleavage activity of the original and G19S derived mutants a chromosomal reporter system in CHO cells was used (FIG. 20). In this system a single-copy LacZ gene driven by the CMV promoter is interrupted by the HprCH3 site and is thus non-functional. The transfection of the cell line with CHO expression plasmids for HprCH3.3/HprCH3.4 and a LacZ repair plasmid allows the restoration of a functional LacZ gene by homologous recombination. It has previously been shown that double-strand breaks can induce homologous recombination; therefore the frequency with which the LacZ gene is repaired is indicative of the cleavage efficiency of the genomic HprCH3 target site.
(§2) CHO cell lines harbouring the reporter system were seeded at a density of 2×10⁵ cells per 10 cm dish in complete medium (Kaighn's modified F-12 medium (F12-K), supplemented with 2 mM L-glutamine, penicillin (100 UI/ml), streptomycin (100 μg/ml), amphotericin B (Fongizone) (0.25 μg/ml) (INVITROGEN-LIFE SCIENCE) and 10% FBS (SIGMA-ALDRICH CHIMIE). The next day, cells were transfected with Polyfect transfection reagent (QIAGEN). Briefly, 2 μg of lacz repair matrix vector was co-transfected with various amounts of meganucleases expression vectors. After 72 hours of incubation at 37° C., cells were fixed in 0.5% glutaraldehyde at 4° C. for 10 min, washed twice in 100 mM phosphate buffer with 0.02% NP40 and stained with the following staining buffer (10 mM Phosphate buffer, 1 mM MgCl₂, 33 mM K hexacyanoferrate (III), 33 mM K hexacyanoferrate (II), 0.1% (v/v) X-Gal). After, an overnight incubation at 37° C., plates were examined under a light microscope and the number of LacZ positive cell clones counted. The frequency of LacZ repair is expressed as the number of LacZ+ foci divided by the number of transfected cells (5×10⁵) and corrected by the transfection efficiency.

[2] = target: T2, HprCH3.3/HprCH3.4 heterodimer (KNSHQS/QRRDI/42A43L + KNTHQS/RYSNN/72T) (synthetic, UniProt P05725;P05725 SEQ:1-163,SEQ:1-163)
T2 chain 1: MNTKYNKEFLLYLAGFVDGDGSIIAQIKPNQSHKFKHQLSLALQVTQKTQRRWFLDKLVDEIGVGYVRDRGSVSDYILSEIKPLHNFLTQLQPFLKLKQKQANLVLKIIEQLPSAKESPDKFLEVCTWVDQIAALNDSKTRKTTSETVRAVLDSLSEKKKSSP
T2 chain 2: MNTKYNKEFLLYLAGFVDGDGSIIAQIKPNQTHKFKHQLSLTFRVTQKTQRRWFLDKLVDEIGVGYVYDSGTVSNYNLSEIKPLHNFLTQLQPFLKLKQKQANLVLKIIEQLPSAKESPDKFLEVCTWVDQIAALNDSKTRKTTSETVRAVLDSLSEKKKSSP
Text: as §1, §2

[3] = target: T3, HprCH3.3/HprCH3.4 G19S heterodimer (synthetic, UniProt P05725;P05725 SEQ:1-163,SEQ:1-163, G19S in second chain)
T3 sequence 1: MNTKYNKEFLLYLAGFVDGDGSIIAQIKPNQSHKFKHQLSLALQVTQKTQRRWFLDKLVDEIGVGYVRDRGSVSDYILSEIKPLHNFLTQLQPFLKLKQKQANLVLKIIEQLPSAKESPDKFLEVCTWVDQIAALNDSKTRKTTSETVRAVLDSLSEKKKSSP
T3 sequence 2: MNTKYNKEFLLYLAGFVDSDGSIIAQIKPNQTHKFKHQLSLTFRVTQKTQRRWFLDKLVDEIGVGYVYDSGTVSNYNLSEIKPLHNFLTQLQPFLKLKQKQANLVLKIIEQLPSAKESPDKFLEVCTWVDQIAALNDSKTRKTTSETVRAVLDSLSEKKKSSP
Text: as §1, §2

B1: HprCH3 (dsDNA)
DNA 1: CGAGATGTCATGAAAGAGATGG
DNA 2: CCATCTCTTTCATGACATCTCG
activity [1]: 0.0115 LacZ repair frequency
activity [2]: 0.002 LacZ repair frequency
activity [3]: 0.012 LacZ repair frequency
